IntAct's records for PubMed 29039417

B1: BBSome complex member BBS2 (Homo sapiens), Q9BXC9 (parent)
chain: MLLPVFTLKLRHKISPRMVAIGRYDGTHPCLAAATQTGKVFIHNPHTRNQHVSASRVFQSPLESDVSLLSINQAVSCLTAGVLNPELGYDALLVGTQTNLLAYDVYNNSDLFYREVADGANAIVLGTLGDISSPLAIIGGNCALQGFNHEGSDLFWTVTGDNVNSLALCDFDGDGKKELLVGSEDFDIRVFKEDEIVAEMTETEIVTSLCPMYGSRFGYALSNGTVGVYDKTSRYWRIKSKNHAMSIHAFDLNSDGVNELITGWSNGKVDARSDRTGEVIFKDNFSSAIAGVVEGDYRMDGHIQLICCSVDGEIRGYLPGTAEMRGNLMDTSAEQDLIRELSQKKQNLLLELRNYEENAKAELASPLNEADGHRGIIPANTRLHTTLSVSLGNETQTAHTELRISTSNDTIIRAVLIFAEGIFTGESHVVHPSIHNLSSSICIPIVPPKDVPVDLHLKAFVGYRSSTQFHVFESTRQLPRFSMYALTSLDPASEPISYVNFTIAERAQRVVVWLGQNFLLPEDTHIQNAPFQVCFTSLRNGGHLHIKIKLSGEITINTDDIDLAGDIIQSMASFFAIEDLQVEADFPVYFEELRKVLVKVDEYHSVHQKLSADMADHSNLIRSLLVGAEDARLMRDMKTMKSRYMELYDLNRDLLNGYKIRCNNHTELLGNLKAVNQAIQRAGRLRVGKPKNQVITACRDAIRSNNINTLFKIMRVGTASS
partner: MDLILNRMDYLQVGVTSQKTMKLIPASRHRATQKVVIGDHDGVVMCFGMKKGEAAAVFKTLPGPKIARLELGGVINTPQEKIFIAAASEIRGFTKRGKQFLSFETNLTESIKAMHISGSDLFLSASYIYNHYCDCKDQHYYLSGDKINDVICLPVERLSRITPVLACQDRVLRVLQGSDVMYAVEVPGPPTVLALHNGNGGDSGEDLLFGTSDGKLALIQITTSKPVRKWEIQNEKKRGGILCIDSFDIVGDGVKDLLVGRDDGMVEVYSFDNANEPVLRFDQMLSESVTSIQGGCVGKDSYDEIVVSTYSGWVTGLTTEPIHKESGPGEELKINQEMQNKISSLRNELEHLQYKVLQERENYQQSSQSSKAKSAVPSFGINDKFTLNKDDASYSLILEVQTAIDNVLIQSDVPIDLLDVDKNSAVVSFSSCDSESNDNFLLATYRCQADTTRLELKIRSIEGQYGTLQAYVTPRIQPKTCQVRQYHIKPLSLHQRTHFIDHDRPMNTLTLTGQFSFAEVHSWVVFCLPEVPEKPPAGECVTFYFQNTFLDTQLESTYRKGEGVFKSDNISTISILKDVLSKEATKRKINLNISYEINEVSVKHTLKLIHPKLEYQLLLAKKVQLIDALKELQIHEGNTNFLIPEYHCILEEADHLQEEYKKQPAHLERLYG

Variants of: B1
Conditions: with BBS7, Q8IWZ6-2

Row | Variant | effect of a mutation on the interaction
1 | F518E | with no effect
2 | F518K | with no effect
3 | F518L | disrupting interaction strength
4 | F518A | with no effect
5 | D562E | with no effect
6 | D562A | disrupting interaction strength
7 | D562K | with no effect
8 | E553K | with no effect
9 | E553A | with no effect
10 | D523A | with no effect
11 | D523E | with no effect
12 | D523K | with no effect
13 | G542A | with no effect
14 | G542K | with no effect
15 | G542E | with no effect
16 | Q532A | disrupting interaction strength
17 | Q532E | with no effect
18 | Q532K | with no effect
19 | L538R | disrupting interaction strength
20 | L538E | with no effect
21 | L538K | with no effect
22 | L538A | with no effect
23 | L538G | disrupting interaction strength
24 | K547E | disrupting interaction strength
25 | K547A | with no effect

Row | Variant | effect of a mutation on the interaction
26 | G541A | with no effect
27 | G541E | with no effect
28 | G541K | with no effect
29 | Q516A | with no effect
30 | Q516E | with no effect
31 | Q516K | with no effect
32 | H545A | with no effect
33 | H545E | with no effect
34 | H545K | disrupting interaction strength
35 | N528E | with no effect
36 | N528A | with no effect
37 | N528K | with no effect
38 | S537A | with no effect
39 | S537E | with no effect
40 | S537K | with no effect
41 | I548A | with no effect
42 | I548K | with no effect
43 | I548E | with no effect
44 | T555E | with no effect
45 | T555K | with no effect
46 | T555A | with no effect
47 | T555H | disrupting interaction strength
48 | W513A | disrupting interaction strength
49 | W513E | disrupting interaction strength
50 | W513R | disrupting interaction strength

Row | Variant | effect of a mutation on the interaction
51 | W513G | disrupting interaction strength
52 | W513K | disrupting interaction strength
53 | R509K | with no effect
54 | R509E | with no effect
55 | R509A | with no effect
56 | H525A | with no effect
57 | H525K | with no effect
58 | H525E | with no effect
59 | K549E | with no effect
60 | K549A | with no effect
61 | V510E | with no effect
62 | V510A | with no effect
63 | V510K | disrupting interaction strength
64 | I546E | with no effect
65 | I546K | with no effect
66 | I546A | with no effect
67 | G552K | with no effect
68 | G552A | with no effect
69 | G552R | disrupting interaction strength
70 | G552E | with no effect
71 | F531A | with no effect
72 | F531E | with no effect
73 | F531K | with no effect
74 | A529K | with no effect
75 | A529E | with no effect

Row | Variant | effect of a mutation on the interaction
76 | V511E | with no effect
77 | V511A | with no effect
78 | V511K | with no effect
79 | I554A | with no effect
80 | I554K | with no effect
81 | I554E | with no effect
82 | E522A | with no effect
83 | E522K | with no effect
84 | Q508K | with no effect
85 | Q508E | with no effect
86 | Q508A | with no effect
87 | S551E | with no effect
88 | S551A | with no effect
89 | S551K | with no effect
90 | N540E | with no effect
91 | N540K | with no effect
92 | N540A | disrupting interaction strength
93 | G515A | with no effect
94 | G515E | with no effect
95 | G515K | with no effect
96 | V512K | with no effect
97 | V512E | with no effect
98 | V512A | with no effect
99 | I561A | with no effect
100 | I561E | with no effect

Row | Variant | effect of a mutation on the interaction
101 | I561C | disrupting interaction strength
102 | I561K | with no effect
103 | L514A | with no effect
104 | L514K | with no effect
105 | L514E | with no effect
106 | T524K | with no effect
107 | T524E | with no effect
108 | T524A | with no effect
109 | N557A | with no effect
110 | N557K | with no effect
111 | N557E | with no effect
112 | I526K | with no effect
113 | I526A | with no effect
114 | I526E | with no effect
115 | Q527E | with no effect
116 | Q527A | with no effect
117 | Q527K | with no effect
118 | L520K | with no effect
119 | L520E | with no effect
120 | L520A | with no effect
121 | P530K | with no effect
122 | P530A | with no effect
123 | P530E | with no effect
124 | L563E | with no effect
125 | L563A | with no effect

Row | Variant | effect of a mutation on the interaction
126 | L519E | disrupting interaction strength
127 | L519K | with no effect
128 | L519A | with no effect
129 | I556K | with no effect
130 | I556A | with no effect
131 | I556E | with no effect
132 | L544S | disrupting interaction strength
133 | L544E | disrupting interaction strength
134 | L544A | with no effect
135 | L544K | disrupting interaction strength
136 | D559K | with no effect
137 | D559E | with no effect
138 | D559A | with no effect
139 | C534K | with no effect
140 | C534E | with no effect
141 | C534A | with no effect
142 | H543E | with no effect
143 | H543A | with no effect
144 | H543K | with no effect
145 | D560A | disrupting interaction strength
146 | D560E | with no effect
147 | D560K | with no effect
148 | V533E | disrupting interaction strength
149 | V533A | with no effect
150 | V533K | with no effect

Row | Variant | effect of a mutation on the interaction
151 | T536A | with no effect
152 | T536K | with no effect
153 | T536E | with no effect
154 | R506K | with no effect
155 | R506E | with no effect
156 | F535K | disrupting interaction strength
157 | F535E | with no effect
158 | F535A | with no effect
159 | L550K | with no effect
160 | L550A | with no effect
161 | L550E | with no effect
162 | N517E | with no effect
163 | N517K | disrupting interaction strength
164 | N517A | with no effect
165 | R539E | with no effect
166 | R539A | with no effect
167 | R539K | with no effect
168 | P521E | with no effect
169 | P521A | with no effect
170 | P521K | with no effect
171 | T558K | with no effect
172 | T558A | with no effect
173 | T558E | with no effect
174 | A507K | with no effect
175 | A507E | with no effect
